Measurements: patent US7056679 (ANTYRA, dated 2006)

B1: DGI-2-40F-3-C8 (peptide)
peptide: YGTAGLFLRRACTMSDPGDPLGRRGYTGWGVLWDEWVTGSAAAGAPVPYPDPLEPRP
B2: DGI-2-40F-3-C424 (peptide)
peptide: TVKFQGVVQERSRIAGFRYCGDHAVSWGLAGCPALRDKLQAAAGAPVPYPDPLEPRP
B3: DGI-2-40F-4-F122 (peptide)
peptide: RSQVRVVSRERSTPVLHRIECLLFSGWCVTSGSDEGVVWGAAAGAPVPYPDPLEPRP
B4: DGI-2-40F-4-E62 (peptide)
peptide: TCWHRGLNVVRYSVNFGVRDARLTTQGMAWFPPGCGQGCVAAAGAPVPYPDPLEPRP

Experiments:
Test in all cases: phage ELISA
DGI-2 polypeptide = target: T1, DGI-2 polypeptide (UniProt Q15004 1-111, limits assumed)
T1 construct: Soluble recombinant protein coated at 500 ng/well; vector tag of pIVEX2.3-MCS not described for this construct; also called KIAA0101
T1 sequence (looked up): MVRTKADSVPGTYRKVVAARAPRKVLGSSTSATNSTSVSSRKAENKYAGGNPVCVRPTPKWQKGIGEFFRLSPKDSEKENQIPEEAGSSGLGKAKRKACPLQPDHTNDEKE
How it was run: (§1)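 Phage from individual clones were bound for 2 h at RT to wells coated with 500 ng DGI-2, LDH (non-specific), anti-E-tag antibody (positive control) or milk (negative control). Bound phage were detected with HRP-anti-M13 and ABTS at A405; positive clones gave ≥2-fold signal over background.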

[1] = target: T2, lactate dehydrogenase (LDH)
T2 construct: Coated at 500 ng/well as non-specific target; also called LDH polypeptide
How it was run: as §1

[2] = target: T3, antibody raised against ETAG
T3 construct: Coated at 500 ng/well; also called E-tag antibody
How it was run: as §1

Row | Binder | DGI-2 (OD) (DGI-2 polypeptide) | DGI-2/LDH (DGI-2 polypeptide) [ratio] | LDH (OD) [1] [OD] | ETAG (OD) [2] [OD]
1 | SWACGLLWPGECGSQVARRGAAAGAPVPYPDPLEPRP [DGI-2-20R-3-D127] | 6.7 | 6.4 | 1 | 15.4
2 | WGCVFRQWASGSGAGCARRHAAAGAPVPYPDPLEPRP [DGI-2-20R-3-D9] | 6.7 | 6.4 | 1 | 19.7
3 | SLECWAMPGMVVRLVGCDGPAAAGAPVPYPDPLEPRP [DGI-2-20R-4-H112] | 6.6 | 6 | 1.1 | 12.3
4 | WWERFVWGRPVDDGVVVMATAAAGAPVPYPDPLEPRP [DGI-2-20R-3-B1] | 6.3 | 6.2 | 1 | 14.5
5 | RRILPWSFPGCGRMCAAAGAPVPYPDPLEPRP [DGJ-2-20R-3-A10] | 6.2 | 5.9 | 1.1 | 16.4
6 | RDTTSQWSWISRGWEFPGWRAAAGAPVPYPDPLEPRP [DGI-2-20R-3-C2] | 6.2 | 5.8 | 1.1 | 11.9
7 | WAASCFWGHVALGCGRNGQGAAAGAPVPYPDPLEPRP [DGI-2-20R-3-A11] | 6.2 | 5.7 | 1.1 | 14.7
8 | RERWGTAWNLWTEGVVDVRPAAAGAPVPYPDPLEPRP [DGI-2-20F-3-B5] | 6.1 | 6.6 | 0.9 | 16.4
9 | GWGCSVPGILCVGGHRQGGGAAAGAPVPYPDPLEPRP [DGI-2-20R-3-B11] | 5.9 | 5.7 | 1 | 16.9
10 | GGGRESWGGGWFMGWGSGAGAAAGAPVPYPDPLEPRP [DGI-2-20R-3-A6] | 5.8 | 5.9 | 1 | 17.7
11 | B1 | 5.7 | 6 | 0.9 | 13.6
12 | DGKHLTKWSGRGWWSAWVGGAAAGAPVPYPDPLEPRP [DGI-2-20R-3-B12] | 5.7 | 5.5 | 1 | 15.5
13 | LPQSRWLSEAWASWVDGVVDAAAGAPVPYPDPLEPRP [DGI-2-20F-4-F9] | 5.6 | 5.9 | 1 | 19.6
14 | VVRQGCMAFSGLCSGVTESEAAAGAPVPYPDPLEPRP [DGI-2-20R-3-C8] | 5.6 | 5.3 | 1.1 | 21.1
15 | B2 | 5.5 | 5.2 | 1.1 | 14.8
16 | VHSQGRMWAIPGLRGGTGASAAAGAPVPYPDPLEPRP [DGI-2-20R-3-D7] | 5.2 | 5.3 | 1 | 18.7
17 | MGVVLECEGGWSIPGQTCYFAAAGAPVPYPDPLEPRP [DGI-2-20R-3-C7] | 5.1 | 5.1 | 1 | 18
18 | MFQDVACDLWHSVRCLRRDVAAAGAPVPYPDPLEPRP [DGI-2-20R-3-B3] | 4.9 | 4.8 | 1 | 16.1
19 | VLQRSLWKDWVDGVMHGGGSRGVAAAGAPVPYPDPLEPRP [DGI-2-20R-3-A7] | 4.8 | 5.1 | 0.9 | 13.9
20 | B3 | 4.7 | 5.7 | 0.8 | 8.1
21 | RPVVCLAGLTLAQFGWVFPGWRGWSAAAGAPVPYPDPLEPRP [DGI-2-20C-3-C1039] | 4.7 | 4.7 | 1 | 11.8
22 | YTPASILTGFQRGYEGAGNGAAAGAPVPYPDPLEPRP [DGI-2-20R-4-G7] | 4.7 | 3.9 | 1.2 | 11.6
23 | B4 | 4.6 | 4.5 | 1 | 14.8
24 | REFFNQASRGAWGYMFREWVEGAAAGAPVPYPDPLEPRP [DGI-2-40F-3-A1] | 4.5 | 5.2 | 0.9 | 9.9
25 | SRPGWCSRGTAWGFPGCSSSAAAGAPVPYPDPLEPRP [DGI-2-20R-3-C4] | 4.5 | 4.2 | 1.1 | 19.1
26 | MSSTAWTDRILQRGIGLGPVAAAGAPVPYPDPLEPRP [DGI-2-20R-4-F1212] | 4 | 3.3 | 1.2 | 9.8
